From the supplement of paper PMC11246515
± gives the standard deviation of the averaged measurements.

Assay: total protein half-life in vivo (active degradation + dilution); higher = more stable protein
[1] = E. coli NCM3722 delta-clpP delta-lon delta-hslV, growth: N-lim chemostat, doubling time 6 h
[2] = E. coli NCM3722 delta-clpP, growth: N-lim chemostat, doubling time 6 h
[3] = E. coli NCM3722 delta-hslV, growth: N-lim chemostat, doubling time 6 h
[4] = E. coli NCM3722 delta-lon, growth: N-lim chemostat, doubling time 6 h
[5] = E. coli NCM3722 delta-smpB, growth: N-lim chemostat, doubling time 6 h
[6] = wild type E. coli NCM3722, growth: C-lim chemostat, doubling time 3 h
[7] = wild type E. coli NCM3722, growth: C-lim chemostat, doubling time 6 h
[8] = wild type E. coli NCM3722, growth: C-lim chemostat, doubling time 12 h
[9] = wild type E. coli NCM3722, growth: N-lim chemostat, doubling time 6 h
[10] = wild type E. coli NCM3722, growth: N-lim chemostat, doubling time 12 h
[11] = wild type E. coli NCM3722, growth: P-lim chemostat, doubling time 6 h
[12] = wild type E. coli NCM3722, growth: P-lim chemostat, doubling time 12 h

Sequence	total protein half-life in vivo [1]	total protein half-life in vivo [2]	total protein half-life in vivo [3]	total protein half-life in vivo [4]	total protein half-life in vivo [5]	total protein half-life in vivo [6]	total protein half-life in vivo [7]	total protein half-life in vivo [8]	total protein half-life in vivo [9]	total protein half-life in vivo [10]	total protein half-life in vivo [11]	total protein half-life in vivo [12]
MTEIVADKTVEVVKNAIETADGALDLYNKYLDQVIPWQTFDETIKELSRFKQEYSQAASVLVGDIKTLLMDSQDKYFEATQTVYEWCGVATQLLAAYILLFDEYNEKKASAQKDILIKVLDDGITKLNEAQKSLLVSSQSFNNASGKLLALDSQLTNDFSEKSSYFQSQVDKIRKEAYAGAAAGVVAGPFGLIISYSIAAGVVEGKLIPELKNKLKSVQNFFTTLSNTVKQANKDIDAAKLKLTTEIAAIGEIKTETETTRFYVDYDDLMLSLLKEAAKKMINTCNEYQKRHGKKTLFEVPEV	4.51 ± 0.82 h	4.37 ± 0.14 h	3.54 ± 0.068 h	3.77 ± 0.13 h	2.84 ± 0.25 h	3.15 ± 0.65 h	4.71 ± 0.94 h	6.71 ± 1.1 h	3.2 ± 0.039 h	5.29 ± 0.62 h	4.11 ± 0.63 h	7.49 ± 0.36 h
MTEKVKQHAAPVTGSDEIDIGRLVGTVIEARWWVIGITTVFALCAVVYTFFATPIYSADALVQIEQNSGNSLVQDIGSALANKPPASDAEIQLIRSRLVLGKTVDDLDLDIAVSKNTFPIFGAGWDRLMGRQNETVKVTTFNRPKEMADQVFTLNVLDNKNYTLSSDGGFSARGQAGQMLKKEGVTLMVEAIHASPGSEFTVTKYSTLGMINQLQNSLTVTENGKDAGVLSLTYTGEDREQIRDILNSIARNYQEQNIERKSAEASKSLAFLAQQLPEVRSRLDVAENKLNAFRQDKDSVDLPLEAKAVLDSMVNIDAQLNELTFKEAEISKLYTKVHPAYRTLLEKRQALEDEKAKLNGRVTAMPKTQQEIVRLTRDVESGQQVYMQLLNKEQELKITEASTVGDVRIVDPAITQPGVLKPKKGLIILGAIILGLMLSIVGVLLRSLFNRGIESPQVLEEHGISVYASIPLSEWQKARDSVKTIKGIKRYKQSQLLAVGNPTDLAIEAIRSLRTSLHFAMMQAQNNVLMMTGVSPSIGKTFVCANLAAVISQTNKRVLLIDCDMRKGYTHELLGTNNVNGLSEILIGQGDITTAAKPTSIAKFDLIPRGQVPPNPSELLMSERFAELVNWASKNYDLVLIDTPPILAVTDAAIVGRHVGTTLMVARYAVNTLKEVETSLSRFEQNGIPVKGVILNSIFRRASAYQDYGYYEYEYKSDAK	–	–	–	4.27 ± 0.44 h	2.13 ± 0.52 h	2.75 h	–	–	–	–	–	–
MTELKNDRYLRALLRQPVDVTPVWMMRQAGRYLPEYKATRAQAGDFMSLCKNAELACEVTLQPLRRYPLDAAILFSDILTVPDAMGLGLYFEAGEGPRFTSPVTCKADVDKLPIPDPEDELGYVMNAVRTIRRELKGEVPLIGFSGSPWTLATYMVEGGSSKAFTVIKKMMYADPQALHALLDKLAKSVTLYLNAQIKAGAQAVMIFDTWGGVLTGRDYQQFSLYYMHKIVDGLLRENDGRRVPVTLFTKGGGQWLEAMAETGCDALGLDWTTDIADARRRVGNKVALQGNMDPSMLYAPPARIEEEVATILAGFGHGEGHVFNLGHGIHQDVPPEHAGVFVEAVHRLSEQYHR	4.03 ± 0.26 h	3.74 ± 0.17 h	3.83 ± 0.17 h	4.15 ± 0.56 h	3.93 ± 0.27 h	2.94 ± 0.43 h	5.94 ± 0.61 h	8.76 ± 0.76 h	4.31 ± 0.093 h	6.62 ± 0.27 h	5.88 ± 0.075 h	10.4 ± 0.69 h
MTELPIDENTPRILIVEDEPKLGQLLIDYLRAASYAPTLISHGDQVLPYVRQTPPDLILLDLMLPGTDGLTLCREIRRFSDIPIVMVTAKIEEIDRLLGLEIGADDYICKPYSPREVVARVKTILRRCKPQRELQQQDAESPLIIDEGRFQASWRGKMLDLTPAEFRLLKTLSHEPGKVFSREQLLNHLYDDYRVVTDRTIDSHIKNLRRKLESLDAEQSFIRAVYGVGYRWEADACRIV	4.22 ± 0.48 h	4.1 ± 0.35 h	4.1 ± 0.073 h	4.58 ± 0.1 h	4.01 ± 0.14 h	2.89 ± 0.092 h	5.54 ± 0.16 h	11.7 ± 2.5 h	4.05 ± 0.21 h	6.62 ± 0.32 h	5.58 ± 0.26 h	13.5 ± 0.37 h
MTEQATTTDELAFTRPYGEQEKQILTAEAVEFLTELVTHFTPQRNKLLAARIQQQQDIDNGTLPDFISETASIRDADWKIRGIPADLEDRRVEITGPVERKMVINALNANVKVFMADFEDSLAPDWNKVIDGQINLRDAVNGTISYTNEAGKIYQLKPNPAVLICRVRGLHLPEKHVTWRGEAIPGSLFDFALYFFHNYQALLAKGSGPYFYLPKTQSWQEAAWWSEVFSYAEDRFNLPRGTIKATLLIETLPAVFQMDEILHALRDHIVGLNCGRWDYIFSYIKTLKNYPDRVLPDRQAVTMDKPFLNAYSRLLIKTCHKRGAFAMGGMAAFIPSKDEEHNNQVLNKVKADKSLEANNGHDGTWIAHPGLADTAMAVFNDILGSRKNQLEVMREQDAPITADQLLAPCDGERTEEGMRANIRVAVQYIEAWISGNGCVPIYGLMEDAATAEISRTSIWQWIHHQKTLSNGKPVTKALFRQMLGEEMKVIASELGEERFSQGRFDDAARLMEQITTSDELIDFLTLPGYRLLA	5.7 ± 1.2 h	4.82 ± 0.056 h	1.75 ± 0.022 h	2.2 ± 0.35 h	1.76 ± 0.22 h	2.25 ± 0.18 h	3.17 ± 0.25 h	4.18 ± 0.32 h	2.5 ± 1 h	2.59 ± 0.19 h	2.73 ± 0.2 h	5.08 ± 0.14 h
MTEVRRRGRPGQAEPVAQKGAQALERGIAILQYLEKSGGSSSVSDISLNLDLPLSTTFRLLKVLQAADFVYQDSQLGWWHIGLGVFNVGAAYIHNRDVLSVAGPFMRRLMLLSGETVNVAIRNGNEAVLIGQLECKSMVRMCAPLGSRLPLHASGAGKALLYPLAEEELMSIILQTGLQQFTPTTLVDMPTLLKDLEQARELGYTVDKEEHVVGLNCIASAIYDDVGSVVAAISISGPSSRLTEDRFVSQGELVRDTARDISTALGLKAHP [P0ACN4]	–	5.13 ± 0.62 h	5.12 ± 0.34 h	4.42 ± 0.94 h	4.4 ± 0.4 h	2.79 ± 0.13 h	5.64 ± 0.18 h	11 ± 0.97 h	4.91 ± 0.23 h	9.46 ± 0.2 h	5.44 ± 0.41 h	11.1 ± 0.81 h
